# In patent publication US20160176924A1 (UNIVERSITY OF COPENHAGEN, published 2016):
# Read-outs that look alike come from different tables or passages of the source. Numbered stars: 1 amine (or outer) side, 2 acyl side, 3 side chain; on linkers, the order of the positions; unused ones are H or OH. Square brackets hold non-standard residues; d marks the D form. Ends that are not written are not given here. * marks the point of attachment. CO(CH2CH2O)13CH2CH2CO = O=C(CCOCCOCCOCCOCCOCCOCCOCCOCCOCCOCCOCCOCCOCCC(=O)[*:2])[*:1]; 5FAM = O=C1OC2(c3ccc(O)cc3Oc3cc(O)ccc32)c2ccc(C(=O)*)cc21; NMeE = CN[C@@H](CCC(=O)O)C(=O)O
# B1: SIESDV (6) (peptide)
# peptide: SIESDV
# notes: N-terminal truncation of the NR2B peptide (1)
# B2: HIS-PDZ3 protein (PSD-95 PDZ3, residues 309-401, with tag MHHHHHPRGS) (other)
# chain: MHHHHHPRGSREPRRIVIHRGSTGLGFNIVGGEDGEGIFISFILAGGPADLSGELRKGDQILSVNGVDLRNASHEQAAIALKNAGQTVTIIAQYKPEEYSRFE
# B3: (GE[N-Cyclohexylethyl]TDV)2PEG12 (75) (peptide)
# peptide: {CO(CH2CH2O)13CH2CH2CO}-GETDV-OH
# modifications: not fully specified (residue 2); printed as (GE[N-Cyclohexylethyl]TDV)2PEG12 (75); also: dimer: two peptides N-terminally joined via PEG12-diacid
# notes: Dimeric ligand; also called (GE[R]TDV)2-PEG12 (75)
# B4: SSIESDV (5) (peptide)
# peptide: SSIESDV
# notes: as for B1
# B5: (IETAV)2PEG4 (83) (peptide)
# peptide: IETAV
# modifications: also: dimer: two peptides joined at N-terminal amines by amide bonds through a PEG4-diacid linker
# notes: Dimeric ligand
# B6: 5-FAM/Cy5-NR2B (peptide)
# peptide: 5FAM-KSGYEKLSSIESDV
# modifications: also: entry also covers Cy5-NR2B: CSG linker, Cy5-maleimide on Cys
# notes: Kd said to be independent of the fluorophore; also called 5-FAM-NR2B; 5-Fam-NR2B peptide
# What was measured:
# [1] = target: T1, HIS-PDZ1 protein (PSD-95 PDZ1, residues 61-151, with tag …) (human, UniProt P78352 61-151); assay: FP competition assay (Ki), fluorescent NR2B probe displaced from the PDZ domain; bar chart
# T1 construct: expressed in E. coli
# [2] = target: T2, HIS-PDZ2 protein (PSD-95 PDZ2, residues 155-249, with tag …) (human, UniProt P78352 155-249); assay: as above
# [3] = target: B2; assay: FP competition, fluorescent CRIPT probe
# [4] = target: T1, HIS-PDZ1 protein (PSD-95 PDZ1, residues …); assay: FP competition, fluorescent NR2B probe
# [5] = target: T2, HIS-PDZ2 protein (PSD-95 PDZ2, residues …); assay: FP competition, fluorescent NR2B probe
# [6] = target: T2, HIS-PDZ2 protein (PSD-95 PDZ2, residues …); assay: FP competition, fluorescent NR2B probe; remark: listed apart in the source
# [7] = target: T3, HIS-PDZ1-2 protein (PSD-95 PDZ1-2 tandem, residues 61-249, with tag …) (human, UniProt P78352 61-249); assay: FP competition: displaces fluorescent NR2B probe (50 nM) from PDZ1-2 (3 µM)
# [8] = target: T2, HIS-PDZ2 protein (PSD-95 PDZ2, residues …); assay: ITC
# [9] = target: T2, HIS-PDZ2 protein (PSD-95 PDZ2, residues …); assay: FP competition: displaces fluorescent NR2B probe (50 nM) from PDZ2 (3 µM)
# [10] = target: T3, HIS-PDZ1-2 protein (PSD-95 PDZ1-2 …); assay: FP competition: displaces fluorescent NR2B probe (50 nM) from PDZ1-2 (3 µM); remark: listed apart in the source
# [11] = target: T1, HIS-PDZ1 protein (PSD-95 PDZ1, residues …); assay: FP competition: displaces fluorescent NR2B probe (50 nM) from PDZ1 (20 µM)
# Tat-NR2B (3) = target: T4, Tat-NR2B (3); assay: FP competition, fluorescent CRIPT probe
# T4 construct: also called Tat-N2B (3); 20-mer Tat-NR2B peptide
# [12] = target: B2; assay: FP saturation binding
# [13] = target: B2; assay: FP competition: fluorescent CRIPT probe (50 nM) on PDZ3 (5 µM)
# [14] = target: T1, HIS-PDZ1 protein (PSD-95 PDZ1, residues …); assay: FP competition, fluorescent NR2B probe; remark: listed apart in the source
# [15] = target: T2, HIS-PDZ2 protein (PSD-95 PDZ2, residues …); assay: FP competition, fluorescent NR2B probe; remark: listed apart in the source
# [16] = target: T3, HIS-PDZ1-2 protein (PSD-95 PDZ1-2 …); assay: FP competition, fluorescent NR2B probe
# [17] = target: T3, HIS-PDZ1-2 protein (PSD-95 PDZ1-2 …); assay: ITC
# [18] = target: T3, HIS-PDZ1-2 protein (PSD-95 PDZ1-2 …); assay: FP competition, fluorescent NR2B probe; exact Ki not calculable
# [19] = target: B2; assay: FP competition, fluorescent CRIPT probe; remark: listed apart in the source
# [20] = target: T5, HIS-PDZ1-2 with tryptophan instead of isoleucine (PDZ1-2 I195W) (human, UniProt P78352 61-249); assay: stopped-flow fluorimetry, Trp fluorescence; stopped-flow fluorescence titration, not FP
# T5 construct: Used in the stopped-flow fluorimetry of ligand 74; also called PDZ1-21195W (so in the source)
# [21] = target: T3, HIS-PDZ1-2 protein (PSD-95 PDZ1-2 …); assay: FP competition, fluorescent NR2B probe; exact Ki not calculable; remark: listed apart in the source
# [22] = target: T2, HIS-PDZ2 protein (PSD-95 PDZ2, residues …); assay: FP competition, alanine scan
# [23] = target: T3, HIS-PDZ1-2 protein (PSD-95 PDZ1-2 …); assay: ITC / FP
# [24] = target: T3, HIS-PDZ1-2 protein (PSD-95 PDZ1-2 …); assay: ITC; dimeric ligand, two IETAV joined by a PEG4 linker (X = 4)
# [25] = target: T3, HIS-PDZ1-2 protein (PSD-95 PDZ1-2 …); assay: FP competition, fluorescent NR2B probe; remark: listed apart in the source
# [26] = target: T1, HIS-PDZ1 protein (PSD-95 PDZ1, residues …); assay: FP saturation binding
# [27] = target: T2, HIS-PDZ2 protein (PSD-95 PDZ2, residues …); assay: FP saturation binding
# [28] = target: T3, HIS-PDZ1-2 protein (PSD-95 PDZ1-2 …); assay: FP saturation binding
binder,measurement,setting,value
B1,binding result,[1],binds
same,binding result,[2],binds
[NMeE]TAV (also called N-Methyl-ETAV (40)) [EMeTAV (40)],Ki,[3],~79 µM
same,Ki,[4],11 µM
same,Ki,[5],8.9 µM
IESDV (also called pentapeptide (7)) [IESDV (7)],Ki,[6],3.1 µM
same,IC50 (read off the curve),[7],~10 µM
same,Kd,[8],2.6 µM
same,IC50 (read off the curve),[9],~9 µM
same,IC50 (read off the curve),[10],~9 µM
same,IC50 (read off the curve),[11],~50 µM
B2,binding result,Tat-NR2B (3),no binding
"5FAM-KSGLDTKNYKQTSV (also: entry also covers Cy5-CRIPT: CSG linker, Cy5-maleimide on Cys, also called 5-FAM-CRIPT) [5-FAM/Cy5-CRIPT]",Kd,[12],3.5 µM
B3,binding result,[13],no binding (tested: log(Conc/M) about -3.6)
same,Ki,[14],83 µM
same,Ki,[15],55 µM
same,Ki,[16],5.5 µM
"{PEG4‑diacid}-IESDV (also: dimer: two peptides N-terminally joined via PEG4-diacid, Dimeric ligand) [(IESDV)2PEG4 (78)]",Ki,[6],2.7 µM
same,Kd,[8],3.3 µM
same,Kd,[17],0.032 µM
same,Ki,[18],~0.1 µM
"KSGYEKLSSIESDV (also called NR2B peptide (1); NR2B WT) [NR2B (1), non-fluorescent NR2B peptide KSG-YEKLSSIESDV]",Ki,[16],6.8 µM
same,binding result,[19],no binding
"{PEG12‑diacid}-IESDV (also: dimer: two peptides N-terminally joined via PEG12-diacid, Dimeric ligand) [(IESDV)2PEG12 (74)]",Ki,[6],3.1 µM
same,Ki,[20],~0.1 µM
same,binding result,[13],no binding (tested: log(Conc/M) about -3.3)
same,Ki,[21],~0.1 µM
same,Kd,[17],0.09 µM
same,Ki,[15],2.8 µM
same,Ki,[18],~0.1 µM
IEADV [Compound 12 (IESDV with Ser P^-2 replaced by Ala)],fold increase in Ki on Ala substitution of Ser (P^-2) in pentapeptide (7),[22],7 fold
IESAV [Compound 13 (IESDV with Asp P^-1 replaced by Ala)],fold higher Ki than CRIPT,[3],> 30 fold
B4,binding result,[1],binds
same,binding result,[2],binds
B5,Ki,[6],1.1 µM
same,fold increase in affinity compared to monomeric IETAV (82),[23],176 fold
same,Kd,[24],0.011 µM
same,Ki,[18],~0.1 µM
"{PEG0‑diacid}-IESDV (also: dimer: two peptides N-terminally joined via PEG0-diacid, Dimeric ligand) [Compound 81 (IESDV dimerized with PEG0-diacid)]",Ki,[6],3.1 µM
same,Ki,[25],1.5 µM
same,Kd,[17],1.1 µM
same,IC50 (read off the curve),[10],~5 µM
KQTSV [truncated CRIPT pentapeptide (KQTSV)],fold reduction in Ki (so in the source) compared with CRIPT peptide (2),[3],14 fold
B6,binding result,[12],no binding
same,Kd,[26],20 µM
same,Kd,[27],3 µM
same,Kd,[28],1.7 µM
